Common to all, as to assay: Kinetic analysis of hOGA-catalysed hydrolysis of fluorogenic substrates
What all share (format): biochemical, human

Substrate in series [1]: CCCCNC(=O)N[C@H]1[C@H](Oc2ccc3c(C)cc(=O)oc3c2)O[C@H](CO)[C@@H](O)[C@@H]1O
Conditions: other: substrate of hOGA, pH 7.4 PBS, 2.5% DMF, 37.0 °C. From the text:
(§1) Given the greater than 100-fold increase in potency we observe for the 2′-aminothiazoline inhibitors over their thiazoline counterparts and their structural resemblance to the oxazoline intermediate found along the reaction coordinate of hOGA, we wanted to assess whether incorporation of the 2′-amino group benefitted binding through serendipitous interactions, or whether the presence of the charge included in this class of inhibitors also made them TS analogues. We therefore turned to using the Bartlett LFER approach. […] We started from 4-methylumbelliferyl 2-amino-2-deoxy-β-D-glucopyranoside hydrochloride (16) as a common intermediate.[54] Per-O-acetylated urea substrates 17a–e were prepared by reacting 16 with the appropriate alkylisocyanate in the presence of triethylamine, followed by Zemplen de-O-acetylation. With this series of substrates (18a–e) in hand we determined the kcat/Km values governing their hOGA catalyzed hydrolysis (ESI Table S1 ^†). […] In contrast, we find no correlation between log Ki values for the inhibitors and log Km values for the series of substrates (Fig. 6B). […]
(§2) Biological evaluation: Gene expression and protein purification. hOGA was expressed and purified according to the previously described procedure by Macauley et al.[5] hOGA was dialyzed twice against PBS buffer after purification and its concentration determined using the Nanodrop2000. Human β-hexosaminidase was obtained from Micheal Tropak at the Hospital for Sick Children in Toronto, without further purification.
(§3) Kinetic analysis of hOGA. All assays were carried out in 96 well plates (Thermoscientific, FloroNunc, lot # 139825) in PBS pH 7.4 buffer (0.03% BSA) in triplicate at 37°C for 20 minutes. A continuous assay procedure was performed in which the reactions were initiated by the addition of 4-MUGlcNAc substrate (50 µL or 100 µL via a multi-channel […]
(§4) The excitation and emission were 350 and 445 nm, respectively. The amount of fluorogenic substrate liberated was quantitatively assessed by using a standard curve for 4-methylumbelliferone under identical buffer conditions. A total of 6-8 inhibitor concentrations were tested, […]
(§5) The hOGA concentrations in the assays ranged from 0.8 nM to 20 nM, depending on whether the Ki being determined was through classic Michaelis-Menten methods or the Morrison Ki fit. For full Ki […]
(§6) For the Morrison Ki analyses, only one substrate concentration was used (at the Km) since the method of inhibition was already known from analysis using the Line-weaver Burke plots. The representative hOGA Ki plots are summarized in Supplemental Figures S1, S2 and S3. Kinetic analysis of substrates 18a-e were performed in triplicate using pH 7.4 PBS buffer (0.03% BSA) containing 2.5% DMF, with varying enzyme concentrations. The Michaelis-Menten curves for substrates 18a-e with hOGA are summarized in Supplemental Figure S6 and the kinetic parameters are described in Supplemental Table S1. […]
(§7) # 139825) at pH 4.25 (50 mM citrate, 100 mM NaCl, 0.03% BSA) at 37°C in triplicate for 20 minutes. Enzymatic reactions were triggered by addition of substrate (20 µL or 15 µL) in a total volume of 45 or 40 µL. Reactions were quenched by the addition of a 4-fold excess (160 or 180 µL) of quenching buffer (200 mM glycine, pH 10.75) in order to […]

Substrate in series [2]: CCCNC(=O)N[C@H]1[C@H](Oc2ccc3c(C)cc(=O)oc3c2)O[C@H](CO)[C@@H](O)[C@@H]1O
The following applies: other: substrate of hOGA, pH 7.4 PBS, 2.5% DMF, 37.0 °C.
Excerpt: as §1, §2, §3, §4, §5, §6, §7

Substrate in series [3]: CCNC(=O)N[C@H]1[C@H](Oc2ccc3c(C)cc(=O)oc3c2)O[C@H](CO)[C@@H](O)[C@@H]1O
Conditions: other: substrate of hOGA, pH 7.4 PBS, 2.5% DMF, 37.0 °C.
Excerpt: as §1, §2, §3, §4, §5, §6, §7

Substrate in series [4]: CNC(=O)N[C@H]1[C@H](Oc2ccc3c(C)cc(=O)oc3c2)O[C@H](CO)[C@@H](O)[C@@H]1O
The following applies: other: estimated by non-linear regression, saturation of hOGA not observed, pH 7.4 PBS, 2.5% DMF, 37.0 °C.
Excerpt: as §1, §2, §3, §4, §5, §6, §7

Substrate in series [5]: Cc1cc(=O)oc2cc(O[C@@H]3O[C@H](CO)[C@@H](O)[C@H](O)[C@H]3NC(N)=O)ccc12
Conditions: other: estimated by non-linear regression, saturation of hOGA not observed, pH 7.4 PBS, 2.5% DMF, 37.0 °C.
Excerpt: as §1, §2, §3, §4, §5, §6, §7

Results on one protein are retold here after paper PMC6008586, “Analysis of transition state mimicry by tight binding aminothiazoline inhibitors provides insight into catalysis by human O-GlcNAcase” (Chemical Science, 2016).

B1: hOGA (Homo sapiens) (protein)
chain: MVQKESQATLEERESELSSNPAASAGASLEPPAAPAPGEDNPAGAGGAAVAGAAGGARRFLCGVVEGFYGRPWVMEQRKELFRRLQKWELNTYLYAPKDDYKHRMFWREMYSVEEAEQLMTLISAAREYEIEFIYAISPGLDITFSNPKEVSTLKRKLDQVSQFGCRSFALLFDDIDHNMCAADKEVFSSFAHAQVSITNEIYQYLGEPETFLFCPTEYCGTFCYPNVSQSPYLRTVGEKLLPGIEVLWTGPKVVSKEIPVESIEEVSKIIKRAPVIWDNIHANDYDQKRLFLGPYKGRSTELIPRLKGVLTNPNCEFEANYVAIHTLATWYKSNMNGVRKDVVMTDSEDSTVSIQIKLENEGSDEDIETDVLYSPQMALKLALTEWLQEFGVPHQYSSRQVAHSGAKASVVDGTPLVAAPSLNATTVVTTVYQEPIMSQGAALSGEPTTLTKEEEKKQPDEEPMDMVVEKQEETDHKNDNQILSEIVEAKMAEELKPMDTDKESIAESKSPEMSMQEDCISDIAPMQTDEQTNKEQFVPGPNEKPLYTAEPVTLEDLQLLADLFYLPYEHGPKGAQMLREFQWLRANSSVVSVNCKGKDSEKIEEWRSRAAKFEEMCGLVMGMFTRLSNCANRTILYDMYSYVWDIKSIMSMVKSFVQWLGCRSHSSAQFLIGDQEPWAFRGGLAGEFQRLLPIDGANDLFFQPPPLTPTSKVYTIRPYFPKDEASVYKICREMYDDGVGLPFQSQPDLIGDKLVGGLLSLSLDYCFVLEDEDGICGYALGTVDVTPFIKKCKISWIPFMQEKYTKPNGDKELSEAEKIMLSFHEEQEVLPETFLANFPSLIKMDIHKKVTDPSVAKSMMACLLSSLKANGSRGAFCEVRPDDKRILEFYSKLGCFEIAKMEGFPKDVVILGRSL
notes: made in house
With B1, the Km (as a rule, the substrate concentration at which the rate is half of its maximum) was 30 ± 3 µM in series [1]; 120 ± 11 µM in series [2]; 85 ± 20 µM in series [3]; 1825 ± 542 µM in series [4]; 1265 ± 259 µM in series [5].
